Reference: patent publication US20230121197A1, “ANTIBODIES SPECIFICALLY BINDING THE CARBOXYMETHYLATED CATALYTIC SUBUNIT OF PROTEIN PHOSPHATASE 2A” (Medizinische Universität Wien, priority 2020, published 2023)

T1: PP2Ac C-terminal peptide meL309, ac-HVTRRTPDYFL-CH3 (α-carboxymethylated) (human, SMILES …)
T1 construct: also called Y307-meL309; mePP2Ac
T1 peptide: Ac-HVTRRTPDYFL-OMe

B1: 7C10-C5 monoclonal antibody (antibody, V domains shown)
VH: DVQLQESGPGLVKPSQSLSLTCSVTGYSITSGYYWNWIRQFPGNKLEWMGYISYDGSNNYNPSLKNRISITRDTSKNQFFLKLNSVTTEDTATYYCAGRFAYWGQGTLVTVSA
VL: DVLMTQTPLSLPVSLGDQASISCRSSQSIVHSNGNTYLEWYLQKPGQSPKLLIYKVSNRFSGVPDRFSGSGSGTDFTLKINRVEAEDLGVYYCFQGSHVPWTFGGGTKLEIK
notes: Used as hybridoma culture supernatant (ELISA, Western blot, IHC) or at 50 µg/mL (SPR); also called 7C10 X63; clone 7C10-C5
B2: 7C10-C5: α-carboxymethylation specific mouse monoclonal IgG1 antibody from single clone hybridoma 7C10-C5 (DSM ACC3350) (antibody)
heavy: MYRMQLLSCIALSLALVTNSDVQLQESGPGLVKPSQSLSLTCSVTGYSITSGYYWNWIRQFPGNKLEWMGYISYDGSNNYNPSLKNRISITRDTSKNQFFLKLNSVTTEDTATYYCAGRFAYWGQGTLVTVSAAKTTAPSVYPLAPVCGDTTGSSVTLGCLVKGYFPEPVTLTWNSGSLSSGVHTFPAVLQSDLYTLSSSVTVTSSTWPSQSITCNVAHPASSTKVDKKIEPRGPTIKPCPPCKCPAPNLLGGPSVFIFPPKIKDVLMISLSPIVTCVVVDVSEDDPDVQISWFVNNVEVHTAQTQTHREDYNSTLRVVSALPIQHQDWMSGKEFKCKVNNKDLPAPIERTISKPKGSVRAPQVYVLPPPEEEMTKKQVTLTCMVTDFMPEDIYVEWTNNGKTELNYKNTEPVLDSDGSYFMYSKLRVEKKNWVERNSYSCSVVHEGLHNHHTTKSFSRTPGK
light: MDMRVPAQLLGLLLLWLSGARCDVLMTQTPLSLPVSLGDQASISCRSSQSIVHSNGNTYLEWYLQKPGQSPKLLIYKVSNRFSGVPDRFSGSGSGTDFTLKINRVEAEDLGVYYCFQGSHVPWTFGGGTKLEIKADAAPTVSIFPPSSEQLTSGGASVVCFLNNFYPKDINVKWKIDGSERQNGVLNSWTDQDSKDSTYSMSSTLTLTKDEYERHNSYTCEATHKTSTSPIVKSFNRNEC
modifications: Amino acid sequence of the recombinant 7C10-C5 heavy chain; Amino acid sequence of the recombinant 7C10-C5 light chain

How the values were obtained:
[1] = biological target: T1, PP2Ac C-terminal peptide meL309, …; assay: SPR, from KD 11 nM against >5000 nM
Description: (A) Saturation curve of the titration of the α-carboxymethylated PP2Ac C-terminal peptide (SEQ ID NO:18) on 7C10-C5 or 2A10 immobilized on a Series S Sensor Chip CM5 (GE Healthcare, 10296958). […] (B) Saturation curve of the titration of the α-carboxymethylated PP4c C-terminal peptide (SEQ ID NO:20) on 7C10-C5 or 2A10 immobilized on a Series S Sensor Chip CM5 (GE Healthcare, 10296958). […] The KD values were obtained using the fitting tool of the BiacoreT200 Evaluation Software (version 3.1).
The differential affinity of anti-carboxymethylated PP2Ac antibodies, 7C10-C5 and 2A10, to carboxymethylated PP2A catalytic subunit versus noncarboxymethylated PP2A catalytic subunit was determined by surface plasmon resonance (SPR) on a Biacore T200 (GE Healthcare) at the Core Facility Biomolecular & Cellular Analysis (University of Natural Resources and Life Sciences Vienna BOKU). The affinity of 7C10-C5 for carboxymethylated and noncarboxymethylated catalytic subunit of PP4 (PP4c), a PP2A-related phosphatase, was also determined.

[2] = biological target: PP2Ac C-terminal peptides (L309, meL309, amL309, pT304, pY307) (Homo sapiens, UniProt P67775); assay: ELISA with PP2Ac C-terminal undecapeptides; type: binding
Experimental: 7C10-C5 was tested for its specificity to the unmodified, methylated or amidated carboxyl group of Leu^309 at the carboxy-terminus of PP2Ac by ELISA with 3 different undecapeptides (11-mers) (FIG. 4). Methylated and amidated peptides were compared because at physiological pH the α-carboxyl-group of Leu^309 is negatively charged and either the methylation or amidation of the α-carboxyl-group neutralizes its negative charge. This allowed the inventors to discriminate between a specificity for the amidated charge-neutralized PP2Ac C-terminus or the carboxymethylated charge-neutralized PP2Ac C-terminus.
Specifically, flat-bottom Nunc-Immuno Medisorp 96-well ELISA plates (Thermo; 467320) were coated o/n at 4° C. with 50 μl of either a peptide of the sequence ac-HVTRRTPDYFL-OH (L309; unmodified) (SEQ ID NO:18) at a concentration of 2 μg/ml, a peptide of the sequence ac-HVTRRTPDYFL-CH3 (meL309; methylated) (SEQ ID NO:18) at a concentration of 2 μg/ml in TBS (137 mM NaCl (AppliChem, #131659, 2.7 mM KCl (AppliChem, #131494), 24.8 mM Tris (AppliChem, #A1086), pH 7.4 with HCl) or a peptide of the sequence ac-HVTRRTPDYFL-NH2 (amL309; amidated) (SEQ ID NO:18) at a concentration of 2 μg/ml in TBS. Of note, the “ac-” in the peptides described here and in other Examples refers to an acetylated N-terminus. Said acetylation neutralizes the positive charge at the N-terminus, and the free charged N-terminus is thereby removed.
Then, the wells were washed once with TBS, blocked with 200 μl of 2% bovine serum albumin (BSA) (Sigma, A9647) in TBS for 1 hour at RT and washed again once with TBS. […] Bound antibodies were detected colorimetrically by addition of 50 μl of 33 μg/ml […] (TMB) (Sigma, T2885) in 0.1 M sodium acetate pH 6.0 and 0.01% H2O2 (Sigma, H1009). The colorimetric reaction was stopped after 10 min by addition of 50 μl 0.5 M H2SO4, and measured at 450 nm and 560 nm with a Perkin Elmer VICTOR® Nivo™ microplate reader. The results from 560 nm read were subtracted from the 450 nm read. […]

Molecule | fold stronger binding than to non-carboxymethylated PP2Ac [1] [fold] | effect of concurrent Tyr307 phosphorylation on binding to carboxymethylated PP2Ac C-terminus [2] | detection difference carboxymethylated+Thr304 phosphorylated versus carboxymethylated peptide ([2]; at lower peptide concentrations (dilution series 8 μg/ml to 7.8125 ng/ml)) [fold] | signal intensity α-carboxymethylated PP2Ac peptide when Thr304 is phosphorylated versus not phosphorylated ([2]; peptides at 2 μg/ml) [fold]
B1 | ≥ 400 | – | – | –
B2 | – | not significantly altered | 4 | 1.6
